Test results reported in PMC3062965 (Apoptosis : an international journal on programmed cell …, 2010).
Values joined by “and” are separate entries in the source; they are usually repeats but may differ in a detail not shown here. Equal entries are not always repeated.

Target: full-length RAIDD (1-199) (human, UniProt P78560 1-199)
Experiment: SEC-MALS

full-length RAIDD (1-199), sequence (P78560 whole entry): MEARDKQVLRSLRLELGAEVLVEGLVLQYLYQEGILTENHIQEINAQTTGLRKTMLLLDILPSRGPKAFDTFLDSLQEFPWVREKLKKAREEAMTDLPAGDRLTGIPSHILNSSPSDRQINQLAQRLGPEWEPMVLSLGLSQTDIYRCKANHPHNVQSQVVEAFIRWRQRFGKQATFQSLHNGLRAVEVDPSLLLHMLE

B1: PIDD DD (777-883) (domain or fragment, human, UniProt Q9HB75 777-883, looked up)
chain: LNLGDAETGFLTQSNLLSVAGRLGLDWPAVALHLGVSYREVQRIRHEFRDDLDEQIRHMLFSWAERQAGQPGAVGLLVQALEQSDRQDVAEEVRAVLELGRRKYQDS
For B1, the “stoichiometry N” value was 7 RAIDD per complex and 5 PIDD DD per complex.
